For one data set, the system named is DC2.4 cells. Kind of data set: Metabolic labeling of DC2.4 cells with azido-sugars, detected by DBCO agents (flow cytometry). The format is cell-based. The conditions noted are these: 3 days incubation, DBCO-Cy5 staining 30 min; vs control cells without pretreatment. The method, then:
It was first tested whether tetraacetyl-N-azidoacetylmannosamine (Ac4ManAz), a commonly used metabolic labeling agent, can label DC2.4 cell line with azido groups (FIG. 2A). Ac4ManAz was synthesized following the reported procedure (Wang, H. et al. Selective in vivo metabolic cell-labeling-mediated cancer targeting. Nature Chemical Biology 13, 415-424 (2017)). […] For flow cytometry analysis of azido-labeled cells, cells were seeded in a 24-well plate at a density of 1×10^4 cells per well and allowed to attach for 12 hours. Azido-sugar was added and incubated with cells for 72 hours. […] Cells were then collected via a cell scraper, re-suspended in FACS buffer, and analyzed by flow cytometry.
On the technique in general: In flow cytometry, cells or beads pass a laser one at a time.

The nature of data set [1]: Water-solubility of azido-sugar. The format is physicochemical.
The test system of a further data set is azido-labeled BMDCs. Kind of data set: In vitro capture of DBCO-OVA and DBCO-CpG by azido-labeled BMDCs. The format is cell-based. The note with it: BMDCs labeled with G400 NP three days, 30 min incubation; vs FITC-OVA. The method, then: Another objective of this invention was to utilize azido-labeled DCs, as achieved above, for LN-targeted delivery of DBCO-bearing antigens and adjuvants. It was first studied whether azido-labeled DCs could covalently capture DBCO-ovalbumin (OVA) and DBCO-CpG in vitro. BMDCs were labeled with G400 NP for three days and incubated with DBCO/FITC-OVA or FITC-OVA for 30 min. […] Similarly, BMDCs pretreated with G400 NP were able to capture more DBCO/Cy5-CpG than control BMDCs (FIGS. 5C and 5D).

In data set [2] the test system is azido-labeled DCs in dLNs. Kind of data set: In vivo LN-targeted delivery of DBCO-OVA. Also on record: species or system C57BL/6 mice. The note with it: for A647 signal of LNs: 48 h post injection. An excerpt:
It was next studied whether the azido-labeled DCs in dLNs can mediate targeted delivery of DBCO-OVA via Click chemistry.

Take `CC(=O)OC[C@H]1OC(OC(C)=O)[C@@H](NC(=O)CN=[N+]=[N-])[C@@H](OC(C)=O)[C@@H]1OC(C)=O` (some centres unmarked) [Ac4ManAz, tetraacetyl-N-azidoacetylmannosamine]: in the data set with DC2.4 cells, the “Cy5 signal of DC2.4 cells” value is listed as “significantly enhanced Cy5 signal”. Moreover, the water-solubility result in data set [1] is listed as “poor”.

B1: DBCO/FITC-OVA: DBCO- and FITC-modified ovalbumin (conjugate, UniProt P01012 2-386, looked up)
Ovalbumin: GSIGAASMEFCFDVFKELKVHHANENIFYCPIAIMSALAMVYLGAKDSTRTQINKVVRFDKLPGFGDSIEAQCGTSVNVHSSLRDILNQITKPNDVYSFSLASRLYAEERYPILPEYLQCVKELYRGGLEPINFQTAADQARELINSWVESQTNGIIRNVLQPSSVDSQTAMVLVNAIVFKGLWEKAFKDEDTQAMPFRVTEQESKPVQMMYQIGLFRVASMASEKMKILELPFASGTMSMLVLLPDEVSGLEQLESIINFEKLTEWTSSNVMEERKIKVYLPRMKMEEKYNLTSVLMAMGITDVFSSSANLSGISSAESLKISQAVHAAHAEINEAGREVVGSAEAGVDAASVSEEFRADHPFLFCIKHIATNAVLFFGRCVSP
modifications: FITC, DBCO
notes: DBCO- and FITC-modified ovalbumin
Regarding B1, in the data set with azido-labeled BMDCs, the “cellular uptake by azido-labeled BMDCs” value is “improved cellular uptake”.

B2: A647-OVA: Alexa fluor647-conjugated OVA without DBCO (conjugate, UniProt P01012 2-386, looked up)
Ovalbumin: B1 Ovalbumin
modifications: Alexa Fluor 647
notes: Alexa fluor647-conjugated OVA without DBCO
On to B2, for which the “A647 signal of LNs” value in data set [2] is on record as “dramatically decreased”.

B3: DBCO/A647-OVA: Alexa fluor647 (A647)-conjugated DBCO-OVA (conjugate, UniProt P01012 2-386, looked up)
Ovalbumin: B1 Ovalbumin
modifications: Alexa Fluor 647, DBCO
Turning to B3, the “percentage of A647-OVA+ DCs in dLNs” value in data set [2] (6 h post injection) is ~43%. Moreover, in data set [2] (6 h post injection, vs A647-OVA), the “A647 fluorescent signal in dLNs” value is recorded as “significantly enhanced A647 fluorescent signal”. The “accumulation in dLNs” value in data set [2] (24 h post injection, vs A647-OVA) was “significantly improved accumulation”. In addition, the “A647 signal of LNs” value in data set [2] is “dramatically decreased”.

The values above are taken from patent publication US12258430B2, “Compositions and methods for labeling and modulation of cells in vitro and in vivo” (President and Fellows of Harvard College, priority 2018, dated 2025).
